# Measurements: IntAct's records for PubMed 23063561
# B1: 1-phosphatidylinositol 4,5-bisphosphate phosphodiesterase gamma-1 (Homo sapiens), P19174 (parent)
# chain: MAGAASPCANGCGPGAPSDAEVLHLCRSLEVGTVMTLFYSKKSQRPERKTFQVKLETRQITWSRGADKIEGAIDIREIKEIRPGKTSRDFDRYQEDPAFRPDQSHCFVILYGMEFRLKTLSLQATSEDEVNMWIKGLTWLMEDTLQAPTPLQIERWLRKQFYSVDRNREDRISAKDLKNMLSQVNYRVPNMRFLRERLTDLEQRSGDITYGQFAQLYRSLMYSAQKTMDLPFLEASTLRAGERPELCRVSLPEFQQFLLDYQGELWAVDRLQVQEFMLSFLRDPLREIEEPYFFLDEFVTFLFSKENSVWNSQLDAVCPDTMNNPLSHYWISSSHNTYLTGDQFSSESSLEAYARCLRMGCRCIELDCWDGPDGMPVIYHGHTLTTKIKFSDVLHTIKEHAFVASEYPVILSIEDHCSIAQQRNMAQYFKKVLGDTLLTKPVEISADGLPSPNQLKRKILIKHKKLAEGSAYEEVPTSMMYSENDISNSIKNGILYLEDPVNHEWYPHYFVLTSSKIYYSEETSSDQGNEDEEEPKEVSSSTELHSNEKWFHGKLGAGRDGRHIAERLLTEYCIETGAPDGSFLVRESETFVGDYTLSFWRNGKVQHCRIHSRQDAGTPKFFLTDNLVFDSLYDLITHYQQVPLRCNEFEMRLSEPVPQTNAHESKEWYHASLTRAQAEHMLMRVPRDGAFLVRKRNEPNSYAISFRAEGKIKHCRVQQEGQTVMLGNSEFDSLVDLISYYEKHPLYRKMKLRYPINEEALEKIGTAEPDYGALYEGRNPGFYVEANPMPTFKCAVKALFDYKAQREDELTFIKSAIIQNVEKQEGGWWRGDYGGKKQLWFPSNYVEEMVNPVALEPEREHLDENSPLGDLLRGVLDVPACQIAIRPEGKNNRLFVFSISMASVAHWSLDVAADSQEELQDWVKKIREVAQTADARLTEGKIMERRKKIALELSELVVYCRPVPFDEEKIGTERACYRDMSSFPETKAEKYVNKAKGKKFLQYNRLQLSRIYPKGQRLDSSNYDPLPMWICGSQLVALNFQTPDKPMQMNQALFMTGRHCGYVLQPSTMRDEAFDPFDKSSLRGLEPCAISIEVLGARHLPKNGRGIVCPFVEIEVAGAEYDSTKQKTEFVVDNGLNPVWPAKPFHFQISNPEFAFLRFVVYEEDMFSDQNFLAQATFPVKGLKTGYRAVPLKNNYSEDLELASLLIKIDIFPAKENGDLSPFSGTSLRERGSDASGQLFHGRAREGSFESRYQQPFEDFRISQEHLADHFDSRERRAPRRTRVNGDNRL
# Variants of: B1
# Settings: with fgfr1_human FGFR1, P11362
# Chain of fgfr1_human FGFR1, P11362 (P11362 whole entry, looked up): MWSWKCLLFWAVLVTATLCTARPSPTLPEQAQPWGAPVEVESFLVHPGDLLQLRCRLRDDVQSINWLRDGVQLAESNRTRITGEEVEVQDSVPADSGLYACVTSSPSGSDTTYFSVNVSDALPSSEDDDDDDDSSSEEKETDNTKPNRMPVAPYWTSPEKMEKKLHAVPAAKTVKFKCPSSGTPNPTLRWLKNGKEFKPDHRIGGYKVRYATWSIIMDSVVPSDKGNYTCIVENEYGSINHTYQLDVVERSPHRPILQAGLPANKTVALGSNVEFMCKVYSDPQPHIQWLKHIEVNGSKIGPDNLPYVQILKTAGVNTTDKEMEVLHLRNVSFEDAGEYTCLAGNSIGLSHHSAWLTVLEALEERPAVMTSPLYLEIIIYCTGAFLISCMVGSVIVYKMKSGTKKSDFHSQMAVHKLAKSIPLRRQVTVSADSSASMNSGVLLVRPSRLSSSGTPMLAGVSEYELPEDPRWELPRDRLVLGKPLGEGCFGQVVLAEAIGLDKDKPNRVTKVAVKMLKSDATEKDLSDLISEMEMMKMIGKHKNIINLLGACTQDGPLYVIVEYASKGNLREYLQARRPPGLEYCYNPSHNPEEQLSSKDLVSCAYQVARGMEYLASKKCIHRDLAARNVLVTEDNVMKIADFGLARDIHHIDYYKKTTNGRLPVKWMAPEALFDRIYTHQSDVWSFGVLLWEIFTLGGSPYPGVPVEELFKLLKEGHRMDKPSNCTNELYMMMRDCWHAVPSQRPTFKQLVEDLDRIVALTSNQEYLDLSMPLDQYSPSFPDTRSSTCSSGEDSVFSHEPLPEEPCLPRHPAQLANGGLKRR
row,Variant,effect of a mutation on the interaction
1,R586L,disrupting interaction strength

# Variants of: B1
# Settings: with fgfr1_human FGFR1, P11362
# Remark: another data set of the same source
row,Variant,effect of a mutation on the interaction
1,Y783F,increasing interaction strength
